Measurements taken from paper PMC2605707.

Biological target: RDE-4 variant R2C (dsRBM2 and C-terminus) (C. elegans)
Assay: SEC

With “RDE-4 variant R2C (dsRBM2 and C-terminus) (domain or fragment)” the stoichiometry N was 2.
